Tests used:
[1] = molecular target: PKA regulatory subunit IIβ, FLAG-tagged (RIIβ-FLAG) (human) (UniProt P31323); assay: co-IP
[2] = molecular target: golgin A3 (UniProt Q08378); assay: anti-FLAG co-IP, golgin A3 Western blot; details: reference: Cα L206R, vehicle; sites S114

UniProt P31323, sequence (P31323 whole entry): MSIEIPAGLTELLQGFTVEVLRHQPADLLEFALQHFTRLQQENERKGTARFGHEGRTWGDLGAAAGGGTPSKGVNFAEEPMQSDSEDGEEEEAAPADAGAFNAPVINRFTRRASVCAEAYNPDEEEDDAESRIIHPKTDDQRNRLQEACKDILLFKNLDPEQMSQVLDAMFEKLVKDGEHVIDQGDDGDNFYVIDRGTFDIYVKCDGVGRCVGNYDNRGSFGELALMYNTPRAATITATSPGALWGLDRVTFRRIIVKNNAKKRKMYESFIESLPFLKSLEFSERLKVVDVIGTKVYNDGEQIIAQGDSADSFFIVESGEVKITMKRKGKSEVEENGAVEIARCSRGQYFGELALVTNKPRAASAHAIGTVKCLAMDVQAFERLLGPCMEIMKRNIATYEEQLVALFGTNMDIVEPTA

densitometry of golgin A3 co-precipitated with RIIβ-FLAG (WB) [1]	other: densitometry, relative units [2]	Substance
1.8		golgin A3 (from UniProt Q08378 1-1498) (natural protein)
	lost; reference 1.8 ± 0.2	RIIβ (PKA regulatory subunit IIβ) (from UniProt P31323) Cα L206R, 8-Br-cAMP

From article PMC7895437
